Measurements: patent US20240091307A1, “COMBINATION THERAPIES OF AMUC_1100 AND IMMUNE CHECKPOINT MODULATORS FOR USE IN TREATING CANCERS” (COMMBIO THERAPEUTICS CO., LTD., priority 2020, published 2024)

What was measured:
TLR2 [1] = molecular target: T1, TLR2 (Homo sapiens, UniProt O60603); test: TLR2 reporter gene assay in HEK293 cells (QUANTI-Blue); type: cell-based; set-up: host or cells: HEK293; details: HEK293 cells expressing human TLR2 and reporter gene; FIG. 3B
Method: HEK293 cells expressing human TLR2 receptor and its reporter gene (InvivoGen, hkb-htlr2) were seeded in a 96-well plate and treated by […] (31-317) or mutant recombinant Amuc_1100 (31-317, Y289A). The reporter gene activity was detected by QUANTI-Blue™ (InvivoGen, rep-qbs2), and the cell viability was detected by CellTiterGlo (Promega, G7573) by following the reagent kits' instruction. The results were shown in FIG. 3B (Pam3CSK4 is the positive control for TLR2 ligand). […] All agents show no significant impact on cell viability.

[2] = Body weight gain in mouse model; type: in vivo, mice; details: 3 μg/kg oral gavage daily for 4 weeks; compared to PBS control group
Method: Mice at age of 9.5 weeks were randomly divided into 3 groups with 4-5 mice in each group and were subjected to agent treatment. The mice in the control group and test groups were treated with PBS, Amuc_1100 (31-317), or Amuc_1100 (31-317, Y289A) (3 μg/kg) by oral gavage daily for 4 weeks, respectively. The body weight of each mouse in each group was measured twice every week.

[3] = test system: spontaneous breast cancer in MMTV-PyVT transgenic C57BL/6 female mice; test: Spontaneous breast cancer model, tumor growth rate and H&E staining; type: in vivo; details: Amuc_1100 proteins 3 μg/kg oral gavage daily 4 weeks; anti-PD-1 10 mg/kg i.v. every three days 3 weeks; FIG. 4, FIG. 5
Method: The MMTV-PyVT transgenic C57BL/6 female mice were used to develop spontaneous breast cancer. Mice at age of 9.5 weeks were randomly divided into 6 groups with 4-5 mice in each group and were subjected to agent treatment. The mice in the control group were treated with PBS by oral gavage daily for 4 weeks, plus PBS i.v. injection daily after one week of oral gavage for 3 weeks. […] All the spontaneously developed tumors were monitored. Tumor sizes were measured twice every week. The health status of mice was closely monitored. Tumor growth rate of each tumor in mouse following agent treatment was analyzed. […]

[4] = test system: proteases trypsin and α-chymotrypsin; test: Protease digestion stability (trypsin and α-chymotrypsin, SDS-PAGE, Coomassie blue); type: in vitro ADME; details: trypsin 0.01 mg/ml and α-chymotrypsin 0.01 mg/ml, 37° C., 30 min; versus wild type; FIG. 3A
Method: Recombinant Amuc_1100 wild type (WT) and mutant protein are digested by proteases trypsin (0.01 mg/ml) and α-chymotrypsin (0.01 mg/ml) at […] for 30 min. The samples are subjected to SDS-PAGE gel electrophoresis and Coomassie blue staining. Lane A: Amuc_1100 (31-317, Y289A) without proteases; Lane B: Amuc_1100 (31-317, Y289A) with proteases; Lane C: Amuc_1100 (31-317, WT) without proteases; Lane D: Amuc_1100 (31-317, WT) with proteases; MW: molecular weight marker (KD).)
Some mutants of the […] (31-317) may reduce protein degradation by proteases. The amino acid sequence (SEQ ID NO: 146) and nucleotide sequence (SEQ ID NO: 147) of Amuc_1100 (31-317, Y289A) with 6×His tag at the C-terminus expressed by the plasmid described above (FIG. 1) were shown in FIG. 2. The recombinant Amuc_1100 (31-317) protein and mutant protein (31-317, Y289A) were digested by proteases trypsin (0.01 mg/ml) and α-chymotrypsin (0.01 mg/ml) at 37° C. for 30 min. The samples were then subjected to SDS-PAGE gel electrophoresis and Coomassie blue staining.

TLR2 [5] = molecular target: T1, TLR2; test: TLR2 reporter assay of Amuc_1100 secreted from engineered EcN; type: cell-based; set-up: expressed in transfected cells; host or cells: HEK293; details: HEK293/TLR2 reporter cells, 24 hours, colorimetric; protein isolated from CBT1108 culture media; FIG. 17
Method: The genetically engineered bacteria EcN strain CBT1108 obtained in Example 6 were cultured, and the culture media was collected at late exponential growth stage. The […] (31-317) protein was isolated from the culture media by his-tag antibody-containing resin column. The endotoxin was removed from the isolated Amuc_1100 (31-317) protein.
The Amuc_1100 (31-317) activity was tested by TLR2 reporter assay. Specifically, HEK293/TLR2 reporter cells were stimulated in 96-well plate with certain amount of protein for 24 hours, the reporter enzyme's substrate was added into the cell media and the activity was measured by colorimetric method.

T1 sequence (O60603 21-784): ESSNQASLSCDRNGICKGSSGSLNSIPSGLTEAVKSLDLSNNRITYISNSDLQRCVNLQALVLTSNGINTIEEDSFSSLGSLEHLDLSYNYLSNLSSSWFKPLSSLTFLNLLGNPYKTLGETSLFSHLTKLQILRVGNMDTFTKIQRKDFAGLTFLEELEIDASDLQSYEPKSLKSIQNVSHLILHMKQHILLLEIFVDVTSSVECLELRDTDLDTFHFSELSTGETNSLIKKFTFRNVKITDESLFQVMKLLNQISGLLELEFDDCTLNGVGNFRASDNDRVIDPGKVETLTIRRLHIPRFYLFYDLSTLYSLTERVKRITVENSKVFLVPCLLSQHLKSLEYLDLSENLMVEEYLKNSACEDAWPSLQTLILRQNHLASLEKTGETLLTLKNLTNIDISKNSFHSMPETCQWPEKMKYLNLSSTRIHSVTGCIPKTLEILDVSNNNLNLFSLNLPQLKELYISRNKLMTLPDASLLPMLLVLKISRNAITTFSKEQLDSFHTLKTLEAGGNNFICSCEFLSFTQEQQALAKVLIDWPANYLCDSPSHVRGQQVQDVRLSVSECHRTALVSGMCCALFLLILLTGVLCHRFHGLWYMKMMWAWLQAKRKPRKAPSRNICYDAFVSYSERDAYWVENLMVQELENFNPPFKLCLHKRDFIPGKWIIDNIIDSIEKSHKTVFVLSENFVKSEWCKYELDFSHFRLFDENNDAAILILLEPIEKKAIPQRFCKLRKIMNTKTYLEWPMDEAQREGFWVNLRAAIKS

B1: Amuc_1100 (31-317, Y289A): Amuc_1100 (31-317) mutant protein with single point mutation Y289A, numbering relative to SEQ ID NO: 1 (protein)
chain: MIVNSKRSELDKKISIAAKEIKSANAAEITPSRSSNEELEKELNRYAKAVGSLETAYKPFLASSALVPTTPTAFQNELKTFRDSLISSCKKKNILITDTSSWLGFQVYSTQAPSVQAASTLGFELKAINSLVNKLAECGLSKFIKVYRPQLPIETPANNPEESDEADQAPWTPMPLEIAFQGDRESVLKAMNAITGMQDYLFTVNSIRIRNERMMPPPIANPAAAKPAAAQPATGAASLTPADEAAAPAAPAIQQVIKPAMGKEQVFVQVSLNLVHFNQPKAQEPSED
TLR2 [1]
  EC50 for TLR2 activation: 0.951 µg/mL
[2]
  changes in body weights: no significant changes in body weights
[3]
  tumor growth inhibition: partially inhibited tumor growth
[4]
  resistance to enzyme digestion: more resistant to enzyme digestion compared to wild type Amuc_1100 protein

B2: Amuc_1100 (31-317): Naturally-occurring fragment (residues 31-317) of Akkermansia muciniphila outer-membrane protein Amuc_1100; recombinant protein (protein)
chain: MIVNSKRSELDKKISIAAKEIKSANAAEITPSRSSNEELEKELNRYAKAVGSLETAYKPFLASSALVPTTPTAFQNELKTFRDSLISSCKKKNILITDTSSWLGFQVYSTQAPSVQAASTLGFELKAINSLVNKLAECGLSKFIKVYRPQLPIETPANNPEESDEADQAPWTPMPLEIAFQGDRESVLKAMNAITGMQDYLFTVNSIRIRNERMMPPPIANPAAAKPAAAQPATGAASLTPADEAAAPAAPAIQQVIKPYMGKEQVFVQVSLNLVHFNQPKAQEPSED
TLR2 [1]
  EC50 for TLR2 activation: 0.535 µg/mL
[2]
  changes in body weights: no significant changes in body weights
[3]
  tumor growth inhibition: partially inhibited tumor growth

B3: secreted Amuc_1100 (31-317) from genetically engineered EcN: Amuc_1100 protein isolated from culture media of EcN strain CBT1108 by his-tag antibody resin, endotoxin removed (protein)
chain: MIVNSKRSELDKKISIAAKEIKSANAAEITPSRSSNEELEKELNRYAKAVGSLETAYKPFLASSALVPTTPTAFQNELKTFRDSLISSCKKKNILITDTSSWLGFQVYSTQAPSVQAASTLGFELKAINSLVNKLAECGLSKFIKVYRPQLPIETPANNPEESDEADQAPWTPMPLEIAFQGDRESVLKAMNAITGMQDYLFTVNSIRIRNERMMPPPIANPAAAKPAAAQPATGAASLTPADEAAAPAAPAIQQVIKPYMGKEQVFVQVSLNLVHFNQPKAQEPSED
TLR2 [5]
  TLR2 signal stimulation: stimulated TLR2 signal
